{"source": "patent US11510965B2", "about": "“Vesicles comprising epidermal growth factor and compositions thereof” (Centro de Ingeniería Genética y Biotecnología, priority 2012, dated 2022)", "molecules": {"B1": {"name": "EGF in physiological saline: spray of EGF (Epidermal Growth Factor) in physiological saline at 25 μg/ml/kg (protein, UniProt P01133 23-1207, looked up)", "Pro-epidermal growth factor": "PQHWSCPEGTLAGNGNSTCVGPAPFLIFSHGNSIFRIDTEGTNYEQLVVDAGVSVIMDFHYNEKRIYWVDLERQLLQRVFLNGSRQERVCNIEKNVSGMAINWINEEVIWSNQQEGIITVTDMKGNNSHILLSALKYPANVAVDPVERFIFWSSEVAGSLYRADLDGVGVKALLETSEKITAVSLDVLDKRLFWIQYNREGSNSLICSCDYDGGSVHISKHPTQHNLFAMSLFGDRIFYSTWKMKTIWIANKHTGKDMVRINLHSSFVPLGELKVVHPLAQPKAEDDTWEPEQKLCKLRKGNCSSTVCGQDLQSHLCMCAEGYALSRDRKYCEDVNECAFWNHGCTLGCKNTPGSYYCTCPVGFVLLPDGKRCHQLVSCPRNVSECSHDCVLTSEGPLCFCPEGSVLERDGKTCSGCSSPDNGGCSQLCVPLSPVSWECDCFPGYDLQLDEKSCAASGPQPFLLFANSQDIRHMHFDGTDYGTLLSQQMGMVYALDHDPVENKIYFAHTALKWIERANMDGSQRERLIEEGVDVPEGLAVDWIGRRFYWTDRGKSLIGRSDLNGKRSKIITKENISQPRGIAVHPMAKRLFWTDTGINPRIESSSLQGLGRLVIASSDLIWPSGITIDFLTDKLYWCDAKQSVIEMANLDGSKRRRLTQNDVGHPFAVAVFEDYVWFSDWAMPSVMRVNKRTGKDRVRLQGSMLKPSSLVVVHPLAKPGADPCLYQNGGCEHICKKRLGTAWCSCREGFMKASDGKTCLALDGHQLLAGGEVDLKNQVTPLDILSKTRVSEDNITESQHMLVAEIMVSDQDDCAPVGCSMYARCISEGEDATCQCLKGFAGDGKLCSDIDECEMGVPVCPPASSKCINTEGGYVCRCSEGYQGDGIHCLDIDECQLGEHSCGENASCTNTEGGYTCMCAGRLSEPGLICPDSTPPPHLREDDHHYSVRNSDSECPLSHDGYCLHDGVCMYIEALDKYACNCVVGYIGERCQYRDLKWWELRHAGHGQQQKVIVVAVCVVVLVMLLLLSLWGAHYYRTQKLLSKNPKNPYEESSRDVRSRRPADTEDGMSSCPQPWFVVIKEHQDLKNGGQPVAGEDGQAADGSMQPTSWRQEPQLCGMGTEQGCWIPVSSDKGSCPQVMERSFHMPSYGTQTLEGGVEKPHSLLSANPLWQQRALDPPHQMELTQ", "modifications": "Pro-epidermal growth factor", "notes": "spray of EGF (Epidermal Growth Factor) in physiological saline at 25 μg/ml/kg"}}, "test_system": "acute lung injury induced by LPS-zymosan", "experiment": "Lethal model of acute lung injury (ALI) / ARDS in rats (LPS-zymosan)", "format": "in vivo, Sprague Dawley rats", "method": "Male Sprague Dawley rats with body weight between 250 and 280 grams were used. Lung injury was induced under general anesthesia (ketamine/xylazine) by intratracheal instillation of a combination of lipopolysaccharide (LPS)-zymosan. Immediately afterwards, the animals were randomly assigned to three experimental groups of 12 animals each.\nThe animals were allowed to evolve without any treatment until the onset of the first symptoms.\nTherefore, treatments were begun approximately 8 hours after the toxins were instilled. The experiment was aimed at evaluating the effect of treatment with both EGF formulations solely on the acute phase of ARDS. The treatments were performed by orofacial mask adapted from a volatile anesthesia machine. Treatments were performed twice daily. The animals were also treated once a day with hydrocortisone acetate (10 mg/kg) as coadjuvant treatment.\nAfter 72 hours of treatment onset, the study was stopped. Surviving animals were anesthetized and subjected to deep bronchoalveolar lavage in 5 ml of sterile saline for cytological and biochemical study, as well as arterial blood sampling for determination of blood gas parameters. Then the lungs were insufflated with 10 ml of 10% neutral formalin and processed for histology.", "key": {"[1]": {"settings": "arterial blood, survivors at 72 hours"}, "[2]": {"settings": "bronchoalveolar lavage, survivors at 72 hours"}}, "data": [{"molecule": "B1", "values": [{"measurement": "Death total", "setting": "12 animals per group, 72 hours", "value": 5}, {"measurement": "Death total (percent)", "setting": "12 animals per group, 72 hours", "value": "(41.6%)"}, {"measurement": "Mortality (deaths) 48 hours", "setting": "12 animals per group, EGF 25 μg/ml, orofacial mask twice daily", "value": 5}, {"measurement": "Arterial pH", "setting": "[1]", "value": "7.12 ± 0.1"}, {"measurement": "Arterial saturation", "setting": "[1]", "value": "76 ± 8.3"}, {"measurement": "Inflammatory cells per ml", "setting": "[2]", "value": "2.2 × 10^3"}, {"measurement": "Red blood cells per ml", "setting": "[2]", "value": "5.0 × 10^2"}, {"measurement": "Total phospholipids per g of lung tissue", "setting": "[2]", "value": 0.000241, "unit": "g"}]}]}
